Data from patent publication US20120039802A1 (published 2012).

The binders below were run against T1, cMet-Fc fusion protein (extracellular domain of the cMet receptor expressed as an Fc-fusion protein) (human, UniProt P08581 25-932) (assay: phage ELISA on cMet-Fc, competitor HGF 500 ng/mL).
T1 construct: extracellular domain; also called soluble cMet-Fc-fusion protein; soluble cMet receptor; not shown: Fc part
T1 sequence (P08581 25-932): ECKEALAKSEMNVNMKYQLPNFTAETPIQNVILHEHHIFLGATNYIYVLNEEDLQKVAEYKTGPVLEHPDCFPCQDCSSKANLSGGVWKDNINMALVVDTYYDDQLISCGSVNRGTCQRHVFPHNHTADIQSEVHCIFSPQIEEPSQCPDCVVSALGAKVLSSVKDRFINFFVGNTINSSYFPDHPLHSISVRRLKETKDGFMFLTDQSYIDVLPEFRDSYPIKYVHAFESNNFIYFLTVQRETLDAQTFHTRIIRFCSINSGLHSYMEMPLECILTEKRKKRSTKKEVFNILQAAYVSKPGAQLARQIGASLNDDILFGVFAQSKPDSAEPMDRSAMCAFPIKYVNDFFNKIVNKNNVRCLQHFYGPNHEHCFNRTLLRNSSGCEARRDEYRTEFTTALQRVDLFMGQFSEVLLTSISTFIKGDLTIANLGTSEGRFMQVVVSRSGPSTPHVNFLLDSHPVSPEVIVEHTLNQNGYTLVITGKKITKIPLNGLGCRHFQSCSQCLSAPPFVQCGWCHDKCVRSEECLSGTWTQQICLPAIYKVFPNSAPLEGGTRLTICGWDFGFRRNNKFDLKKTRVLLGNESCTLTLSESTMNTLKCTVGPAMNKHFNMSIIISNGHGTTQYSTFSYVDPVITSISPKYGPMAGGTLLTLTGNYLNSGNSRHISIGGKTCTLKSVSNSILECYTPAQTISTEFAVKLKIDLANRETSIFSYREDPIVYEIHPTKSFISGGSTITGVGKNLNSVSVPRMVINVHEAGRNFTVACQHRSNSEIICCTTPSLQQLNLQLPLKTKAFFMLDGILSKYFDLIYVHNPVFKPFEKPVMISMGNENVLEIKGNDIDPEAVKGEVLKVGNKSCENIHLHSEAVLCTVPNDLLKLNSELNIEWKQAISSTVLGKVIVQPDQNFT
Experimental: (§1) These assays were conducted using the peptide-displaying phage discovered from the initial selection and screening campaigns using the first generation peptide libraries. Briefly, 96-well plates were coated overnight at 4 C with 0.5 μg/mL of cMet-Fc fusion protein or TRAIL-Fc fusion protein (background). The plates were blocked for 2 hours at 37 C with 3% BSA in PBST. […] This was followed by an addition of 30 μL of peptide-displaying phage overnight culture to each well. The plates were incubated for 2 hours at room temperature, washed with PBST and cMet-binding peptide-displaying phage was detected using an HRP-conjugated anti-M13 antibody.
For GSPEMCMMFPFLYPCNHHAP [548-F07 peptide-displaying phage (SEQ ID NO: 369)], the “% of binding in the absence of HGF” value was 37%.
AGTLSCSEEYKSCQLQGT [465-E09 peptide-displaying phage (SEQ ID NO: 027)] was tested, and the “% of binding in the absence of HGF” value was 77%.
With AGQAVCEWGPFWCQMQGT [470-A02 peptide-displaying phage (SEQ ID NO: 031)] the “% of binding in the absence of HGF” value was 62%.
For AGQYLCTQAALGCPEWGT [465-E11 peptide-displaying phage (SEQ ID NO: 029)], the “% of binding in the absence of HGF” value was 124%.
For AGNLPCHWNMSVCDHQGT [465-D01 peptide-displaying phage (SEQ ID NO: 034)], the “% of binding in the absence of HGF” value was 134%.
ADAWMCEYFQWNCGDKGT [458-B05 peptide-displaying phage (SEQ ID NO: 046)] was tested, and the “% of binding in the absence of HGF” value was 247%.
In the case of AGKYMCEGFEWFCEMWGT [442-E08 peptide-displaying phage (SEQ ID NO: 037)], the “% of binding in the absence of HGF” value is reported as 75%.
For AGETVCYWLNGWFCVDDGT [274-B07 peptide-displaying phage (SEQ ID NO: 073)], the “% of binding in the absence of HGF” value was 296%.
In the case of AGTIRCNLAMMVCMFEGT [444-B08 peptide-displaying phage (SEQ ID NO: 028)], the “% of binding in the absence of HGF” value is reported as 93%.
In the case of AGMDFCEGFWFLCIGNAT [571-C11 peptide-displaying phage (SEQ ID NO: 035)], the “% of binding in the absence of HGF” value is reported as 72%.
With GSLIFCPYGECMMYAP [470-E11 peptide-displaying phage (SEQ ID NO: 005)] the “% of binding in the absence of HGF” value was 127%.
For GSSHLCNPEFCHFTAP [465-D09 peptide-displaying phage (SEQ ID NO: 003)], the “% of binding in the absence of HGF” value was 70%.
For AGVTNCNLSTMFCFLHGT [465-F08 peptide-displaying phage (SEQ ID NO: 026)], the “% of binding in the absence of HGF” value was 116%.
In the case of AGGNWCSFYEELCEWLGT [445-E04 peptide-displaying phage (SEQ ID NO: 043)], the “% of binding in the absence of HGF” value is reported as 102%.

These binders were tested against T2, human cMet expressed on 3T3 cells (human, UniProt P08581 25-1390) (assay: whole cell phage ELISA, 3T3 human cMet vs 3T3).
T2 construct: whole, on cells; cells fixed with glutaraldehyde; also called cell surface-expressed human cMet; 3T3 cells that over-express human cMet
T2 sequence (P08581 25-1390): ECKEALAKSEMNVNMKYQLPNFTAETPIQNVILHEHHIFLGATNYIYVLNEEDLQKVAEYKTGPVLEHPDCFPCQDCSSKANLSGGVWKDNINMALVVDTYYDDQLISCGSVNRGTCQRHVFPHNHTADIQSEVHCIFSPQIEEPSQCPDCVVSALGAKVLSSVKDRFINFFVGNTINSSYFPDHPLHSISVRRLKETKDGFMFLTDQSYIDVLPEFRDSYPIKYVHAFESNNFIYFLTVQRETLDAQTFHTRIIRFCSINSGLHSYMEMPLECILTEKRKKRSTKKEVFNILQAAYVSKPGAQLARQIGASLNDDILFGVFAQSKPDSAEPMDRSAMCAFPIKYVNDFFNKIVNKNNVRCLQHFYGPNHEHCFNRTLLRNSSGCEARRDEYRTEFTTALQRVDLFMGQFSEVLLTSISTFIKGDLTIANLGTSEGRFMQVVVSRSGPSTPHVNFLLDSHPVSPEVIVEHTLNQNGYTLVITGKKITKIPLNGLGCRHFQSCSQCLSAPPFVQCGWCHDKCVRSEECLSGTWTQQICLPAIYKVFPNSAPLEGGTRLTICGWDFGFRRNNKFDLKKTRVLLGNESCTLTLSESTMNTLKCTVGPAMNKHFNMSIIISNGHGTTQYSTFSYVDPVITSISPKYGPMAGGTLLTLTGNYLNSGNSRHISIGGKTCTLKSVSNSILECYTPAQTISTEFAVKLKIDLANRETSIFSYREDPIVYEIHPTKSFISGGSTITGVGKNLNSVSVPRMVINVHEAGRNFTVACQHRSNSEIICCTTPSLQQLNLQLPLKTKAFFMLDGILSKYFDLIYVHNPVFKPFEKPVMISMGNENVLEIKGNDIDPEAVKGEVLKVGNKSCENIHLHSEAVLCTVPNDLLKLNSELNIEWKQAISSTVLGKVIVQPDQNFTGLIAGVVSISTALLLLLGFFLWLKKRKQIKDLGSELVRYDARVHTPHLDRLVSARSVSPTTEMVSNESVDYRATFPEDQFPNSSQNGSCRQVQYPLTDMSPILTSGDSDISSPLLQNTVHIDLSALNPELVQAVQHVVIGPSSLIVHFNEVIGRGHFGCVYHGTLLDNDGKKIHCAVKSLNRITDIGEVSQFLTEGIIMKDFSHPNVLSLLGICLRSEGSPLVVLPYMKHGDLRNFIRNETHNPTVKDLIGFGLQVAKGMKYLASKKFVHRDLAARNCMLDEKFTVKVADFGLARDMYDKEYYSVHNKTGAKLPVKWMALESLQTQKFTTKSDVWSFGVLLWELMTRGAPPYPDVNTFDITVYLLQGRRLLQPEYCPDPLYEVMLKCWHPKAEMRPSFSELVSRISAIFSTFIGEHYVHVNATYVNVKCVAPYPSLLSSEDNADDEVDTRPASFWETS
Experimental: Whole cell ELISAs were performed using 3T3 cells that over-express human cMet. […] Briefly, 96-well plates were seeded with 10⁵ cells per well. The plates were centrifuged for 5 minutes at 1600 rpm to pellet the cells. The resulting cell layer was fixed with 0.1% (v/v) glutaraldehyde for 12 minutes at 37 C. […] Peptide-displaying phage also were blocked in the above solution for 1 hour at 37 C. 100 μL of blocked phage was then added to each well and the plates were incubated for 1 hour at room temperature. The plates were washed with PBST. cMet-binding peptide-displaying phage were detected using an HRP-conjugated anti-M13 antibody.
With AGTLSCSEEYKSCQLQGT [465-E09 peptide-displaying phage (SEQ ID NO: 027)] the “WC ELISA (fold over background)” value was 1.3 fold.
In the case of AGQAVCEWGPFWCQMQGT [470-A02 peptide-displaying phage (SEQ ID NO: 031)], the “WC ELISA (fold over background)” value is reported as 1.3 fold.
With AGQYLCTQAALGCPEWGT [465-E11 peptide-displaying phage (SEQ ID NO: 029)] the “WC ELISA (fold over background)” value was 1.23 fold.
AGNLPCHWNMSVCDHQGT [465-D01 peptide-displaying phage (SEQ ID NO: 034)] was tested, and the “WC ELISA (fold over background)” value was 1.3 fold.
In the case of ADAWMCEYFQWNCGDKGT [458-B05 peptide-displaying phage (SEQ ID NO: 046)], the “WC ELISA (fold over background)” value is reported as 1.33 fold.
In the case of AGKYMCEGFEWFCEMWGT [442-E08 peptide-displaying phage (SEQ ID NO: 037)], the “WC ELISA (fold over background)” value is reported as 1.43 fold.
AGETVCYWLNGWFCVDDGT [274-B07 peptide-displaying phage (SEQ ID NO: 073)] was tested, and the “WC ELISA (fold over background)” value was 1.1 fold.
AGTIRCNLAMMVCMFEGT [444-B08 peptide-displaying phage (SEQ ID NO: 028)] was tested, and the “WC ELISA (fold over background)” value was 1.43 fold.
With AGMDFCEGFWFLCIGNAT [571-C11 peptide-displaying phage (SEQ ID NO: 035)] the “WC ELISA (fold over background)” value was 1.23 fold.
GSLIFCPYGECMMYAP [470-E11 peptide-displaying phage (SEQ ID NO: 005)] was tested, and the “WC ELISA (fold over background)” value was 1.33 fold.
GSSHLCNPEFCHFTAP [465-D09 peptide-displaying phage (SEQ ID NO: 003)] was tested, and the “WC ELISA (fold over background)” value was 1.3 fold.
For AGVTNCNLSTMFCFLHGT [465-F08 peptide-displaying phage (SEQ ID NO: 026)], the “WC ELISA (fold over background)” value was 1.3 fold.
In the case of AGGNWCSFYEELCEWLGT [445-E04 peptide-displaying phage (SEQ ID NO: 043)], the “WC ELISA (fold over background)” value is reported as 1.37 fold.

These binders were tested against T1, cMet-Fc fusion protein (extracellular …) (assay: phage ELISA on cMet-Fc, competitor HGF 100 ng/mL).
Experimental: as §1
For AGTLSCSEEYKSCQLQGT [465-E09 peptide-displaying phage (SEQ ID NO: 027)], the “% of binding in the absence of HGF” value was 60%.
AGQAVCEWGPFWCQMQGT [470-A02 peptide-displaying phage (SEQ ID NO: 031)] was tested, and the “% of binding in the absence of HGF” value was 78%.
For AGQYLCTQAALGCPEWGT [465-E11 peptide-displaying phage (SEQ ID NO: 029)], the “% of binding in the absence of HGF” value was 33%.
In the case of AGNLPCHWNMSVCDHQGT [465-D01 peptide-displaying phage (SEQ ID NO: 034)], the “% of binding in the absence of HGF” value is reported as 235%.
ADAWMCEYFQWNCGDKGT [458-B05 peptide-displaying phage (SEQ ID NO: 046)] was tested, and the “% of binding in the absence of HGF” value was 201%.
GSHHTCLDGFAGWRCTEVAP [546-E02 peptide-displaying phage (SEQ ID NO: 366)] was tested, and the “% of binding in the absence of HGF” value was 74%.
For AGKYMCEGFEWFCEMWGT [442-E08 peptide-displaying phage (SEQ ID NO: 037)], the “% of binding in the absence of HGF” value was 81%.
AGTIRCNLAMMVCMFEGT [444-B08 peptide-displaying phage (SEQ ID NO: 028)] was tested, and the “% of binding in the absence of HGF” value was 111%.
AGMDFCEGFWFLCIGNAT [571-C11 peptide-displaying phage (SEQ ID NO: 035)] was tested, and the “% of binding in the absence of HGF” value was 107%.
With GSLIFCPYGECMMYAP [470-E11 peptide-displaying phage (SEQ ID NO: 005)] the “% of binding in the absence of HGF” value was 55%.
GSSHLCNPEFCHFTAP [465-D09 peptide-displaying phage (SEQ ID NO: 003)] was tested, and the “% of binding in the absence of HGF” value was 90%.
With AGVTNCNLSTMFCFLHGT [465-F08 peptide-displaying phage (SEQ ID NO: 026)] the “% of binding in the absence of HGF” value was 68%.
In the case of AGGNWCSFYEELCEWLGT [445-E04 peptide-displaying phage (SEQ ID NO: 043)], the “% of binding in the absence of HGF” value is reported as 127%.

What follows are binders tested against T1, cMet-Fc fusion protein (extracellular …) (assay: phage ELISA, cMet-Fc vs TRAIL-Fc).
Experimental: Protein phage ELISAs using peptide-displaying phage isolates from the various selection campaigns were performed to determine specificity of the peptides for cMet versus an unrelated Fc-fusion protein (TRAIL-Fe). Briefly, 384-well plates were coated overnight at 4 C with 0.5 μg/mL of cMet-Fc fusion protein or TRAIL-Fc fusion protein (background). The plates were blocked for 2 hours 37 C with 3% (w/v) BSA in PBS containing 0.05% (v/v) Tween-20 (PBST). The plates were washed with PBST and 100 μL of peptide-displaying phage were added to each well. The plates were incubated for 2 hours at room temperature and washed with PBST. cMet-binding peptide-displaying phage were detected using an HRP-conjugated anti-M13 antibody.
For AGTLSCSEEYKSCQLQGT [465-E09 peptide-displaying phage (SEQ ID NO: 027)], the “Protein ELISA (fold over background)” value was 3.6 fold.
In the case of AGQAVCEWGPFWCQMQGT [470-A02 peptide-displaying phage (SEQ ID NO: 031)], the “Protein ELISA (fold over background)” value is reported as 3.2 fold.
For AGQYLCTQAALGCPEWGT [465-E11 peptide-displaying phage (SEQ ID NO: 029)], the “Protein ELISA (fold over background)” value was 4.3 fold.
AGNLPCHWNMSVCDHQGT [465-D01 peptide-displaying phage (SEQ ID NO: 034)] was tested, and the “Protein ELISA (fold over background)” value was 3.3 fold.
For ADAWMCEYFQWNCGDKGT [458-B05 peptide-displaying phage (SEQ ID NO: 046)], the “Protein ELISA (fold over background)” value was 4.5 fold.
AGKYMCEGFEWFCEMWGT [442-E08 peptide-displaying phage (SEQ ID NO: 037)] was tested, and the “Protein ELISA (fold over background)” value was 4.1 fold.
AGETVCYWLNGWFCVDDGT [274-B07 peptide-displaying phage (SEQ ID NO: 073)] was tested, and the “Protein ELISA (fold over background)” value was 7.8 fold.
In the case of AGTIRCNLAMMVCMFEGT [444-B08 peptide-displaying phage (SEQ ID NO: 028)], the “Protein ELISA (fold over background)” value is reported as 3.6 fold.
AGMDFCEGFWFLCIGNAT [571-C11 peptide-displaying phage (SEQ ID NO: 035)] was tested, and the “Protein ELISA (fold over background)” value was 3.5 fold.
For GSLIFCPYGECMMYAP [470-E11 peptide-displaying phage (SEQ ID NO: 005)], the “Protein ELISA (fold over background)” value was 3.5 fold.
With GSSHLCNPEFCHFTAP [465-D09 peptide-displaying phage (SEQ ID NO: 003)] the “Protein ELISA (fold over background)” value was 3.2 fold.
For AGVTNCNLSTMFCFLHGT [465-F08 peptide-displaying phage (SEQ ID NO: 026)], the “Protein ELISA (fold over background)” value was 3.8 fold.
With AGGNWCSFYEELCEWLGT [445-E04 peptide-displaying phage (SEQ ID NO: 043)] the “Protein ELISA (fold over background)” value was 4.2 fold.
